Test results reported in article PMC10383791, “Evaluation of [^18F]AlF-EMP-105 for Molecular Imaging of C-Met” (Pharmaceutics, 2023).
“Also recorded” adds a separate entry of the source. Bridge positions count the residues as written; N and C are the ends. Ends that are not written are not given here. Peptide text beside a SMILES is read from it. * marks the point of attachment. NOTA = O=C(O)CN1CCN(CC(=O)O)CCN(CC(=O)*)CC1

What was measured:
in vitro = details: human, human serum
Protocol: (§1) Analytical radio-HPLC chromatograms were obtained using an Agilent 1200 series instrument equipped with a flow-ram detector (Lablogic, Sheffield, UK), and integrated using Laura 6 software (Lablogic, Sheffield, UK). Column: phenomenex Aeris^TM 3.6 µm WIDEPORE C4 200 Å. Mobile phase: 0.1% TFA H2O:MeCN 95:5 v/v to 5:95 v/v, 0.8 mL/min flow rate.
(§2) A fraction of purified [^18F]AlF-EMP-105 (10 MBq in ~10 µL EtOH) was incubated, respectively, in 1000 µL of EtOH, PBS, RPMI, human serum and EDTA (0.02% in 0.5 mM DPBS) at 37 °C, and analysed by RP-HPLC at 1, 2, 3, and 4 h time points. For stability towards radiolysis, aliquots of >2 GBq of purified [^18F]AlF-EMP-105 eluted from the cartridge in ethanol (75% in 10 mM H3P0_4) or formulated in PBS solution containing 7.5% ethanol and 5 mg/mL (10 mL) of 4-aminobenzoic acid (PABA) as radioprotectant were analysed by RP-HPLC.

[1] = dynamic PET 60 min, TACs, healthy mice, i.v.
Protocol: Female BALB/c mice (6–8 weeks old) were anaesthetized with 2% isoflurane/O2. Imaging was performed using a Siemens Inveon small-animal multimodality PET/CT system (Siemens Medical Solutions USA, Inc., Knoxville, TN, USA). After completion of the CT scan, [^18F]AlF-EMP-105 (4.6 ± 1.2 MBq) was injected intravenously via the lateral tail vein. Dynamic emission scans were acquired in list-mode format for 60 min. Image data were processed as 0.5 mm sinogram bins and 33 time-frames, and reconstructed using the 2D-ordered subsets expectation maximization (2D-OSEM) algorithm with CT-based attenuation correction. The following frame durations were used: 12 × 5 s, 4 × 15 s, 6 × 30 s, and 11 × 300 s. Images were analysed using Inveon Research Workplace software (Siemens Healthcare Molecular Imaging, Knoxville, TN, USA). PET and CT images were co-registered and used to draw 3-dimensional regions of interests (ROIs) over tissues to obtain time–activity curves (TACs). Decay-corrected tissue time versus radioactivity curves (TACs) were generated and normalized to whole-body activity to obtain normalized uptake values (NUVs).

HT29 [2] = assay: In vitro radioactive uptake with and without EMI-137 blocking; assay type: cell-based; details: ~0.74 MBq, 60 min, 37 °C, gamma counting, mean ± SEM
Protocol: (§3) H1975 (non-small cell lung cancer), HEPG2a (hepatocellular carcinoma), HT29 (colorectal cancer) were purchased from ATCC. OE21 (oesophageal squamous cell carcinoma) was obtained from Prof George Hanna. H1975 and OE21 cells were maintained in RPMI-1640 media (Sigma-Aldrich) supplemented with 10% fetal calf serum (Sigma-Aldrich), 1% L-glutamine, and 2% penicillin/streptomycin (Sigma-Aldrich). HEPG2a and HT29 cells were cultured in DMEM (Sigma-Aldrich) containing 10% fetal calf serum, 1% L-glutamine, and 2% penicillin/streptomycin. All cell lines were cultured at 37 °C and 5% CO2.
(§4) Cells were seeded at appropriate densities (~500,000 cells/well in a 6-well plate) and allowed to attach overnight. On the day of uptake, cells were washed three times with warm PBS and incubated with 1 mL of fresh media containing approximately 0.74 MBq of [^18F]AlF-EMP-105, with or without 100× molar equivalent of EMI-137 (blocking compound), in a humidified condition with 5% CO2 at 37 °C for 60 min. After 60 min of incubation, the cells were washed with ice-cold PBS (3 times), then lysed in 1 mL of RIPA buffer for 10 min on ice. Following this step, radioactivity from 800 µL of lysate from each sample was counted on a WIZARD2® Automatic Gamma Counter. To determine the specificity of uptake, data were expressed as a percentage of radioactivity incorporated into cells, in untreated cells compared to cells blocked with EMI-137.

HEPG2a [3] = assay: as above; assay type: cell-based; details: HEPG2a (negative control); ~0.74 MBq, 60 min, 37 °C; gamma counting; mean ± SEM
Protocol: as §3, §4

H1975 [4] = assay: as above; assay type: cell-based; details: ~0.74 MBq, 60 min, 37 °C, gamma counting, mean ± SEM
Protocol: as §3, §4

OE21 [5] = assay: as above; assay type: cell-based; details: ~0.74 MBq, 60 min, 37 °C, gamma counting, mean ± SEM
Protocol: as §3, §4

physchem = assay: physchem
Protocol: as §1, §2

[6] = Radioactive metabolite analysis in tissues by radio-HPLC; details: mouse i.v., mean ± s.d., n = 3
Protocol: For metabolite analysis, radio-HPLC chromatograms were obtained using an Agilent 1100 system equipped with an in-line posiRAM metabolite detector (Lablogic, Sheffield, UK). The same column and mobile phase were used.
In female BALB/c mice at 5 and 30 min p.i. of [^18F]AlF-NOTA-EMP-105, four key tissues (blood plasma, liver, kidney and urine) were analysed for radioactive metabolites by radio-HPLC. The retention time of free [^18F]fluoride and the parent compound [^18F]AlF-EMP-105 were determined by injecting a pure sample of each onto the metabolite radio-HPLC system.
The liver and kidneys were excised, and homogenised in ice cold MeCN:H2O (1 mL, 1:2 v/v) using a Precellys tissue homogeniser fitted with a Cryolys cooling module (Stretton Scientific Ltd., Derbyshire, UK). The homogenate was centrifuged (13,000× g, 5 min), the supernatant was removed, filtered (0.22 µm syringe filter) and diluted in water prior to RP-HPLC analysis. Urine was diluted in water and filtered prior to HPLC analysis. Plasma was obtained from whole blood by centrifugation (2000× g, 10 min) to separate the blood cells from the plasma. Plasma were precipitated with ice cold MeCN:H2O (1 mL, 1:2 v/v), and centrifuged (13,000× g, 5 min) to pellet the proteins. The supernatant was filtered and diluted in water for radio-HPLC analysis. The HPLC injection loop was washed with MeCN:H2O 1:1 v/v (1 mL) and then 5:95 v/v (1 mL) between each injection. The extraction efficiency from each tissue sample was determined by counting the activity (counts per minute, CPM) of a small aliquot (20 µL) of the supernatant of a known volume and the whole protein pellet, in a γ-counter.

HT29 [7] = assay: Flow cytometry uptake of EMI-137 (c-Met expression level); assay type: cell-based; details: 50 nM, 1 h, 37 °C
Protocol: as §3
(§5) Approximately 500,000 cells were seeded in 6-well plates and cultured for 24 h at 37 °C and 5% CO2. Cells were washed with warm PBS and incubated with 50 nM EMI-137 for 1 h at 37 °C and 5% CO2. Subsequently, cells were washed with ice-cold PBS three times prior to sample acquisition via FACS Canto flow cytometer (Becton Dickinson Immunocytometry Systems, Franklin Lakes, NJ, USA) with FACS Diva Software version 4.0.2. The obtained data were analysed using FlowJo software v7.6 (FlowJo, LLC, Ashland, OR, USA). Unstained controls were used to define gates and adjust fluorescence compensation.

HEPG2a [8] = assay: as above; assay type: cell-based; details: HEPG2a (negative control), 50 nM, 1 h, 37 °C
Protocol: as §3, §5

H1975 [9] = assay: as above; assay type: cell-based; details: 50 nM, 1 h, 37 °C
Protocol: as §3, §5

OE21 [10] = assay: as above; assay type: cell-based; details: 50 nM, 1 h, 37 °C
Protocol: as §3, §5

H1975 cells = assay: Internalisation assay of EMI-137 by flow cytometry; assay type: cell-based
Protocol: as §3
H1975 cells were seeded in a 6-well plate at a seeding density of 500,000 cells/well, 24 h prior to performing internalisation assay. […] Subsequently, cells were washed with ice-cold PBS three times. To determine internalisation levels at 4 °C, surface-bound EMI-137 was removed by washing the cells with 50 mM of glycine prepared in 150 mM NaCl (Sigma) for 5 min followed by three washes with ice-cold PBS. […] Data were presented as mean Fluorescence Intensity (MFI). The internalised fraction was determined by subtracting the surface-bound EMI-137 from total EMI-137. The percentage of internalised fraction was calculated by dividing the amount of internalised EMI-137 by total-bound EMI-137 multiplied by 100%. Unstained controls were used to define gates and adjust fluorescence compensation.

## CC(=O)N[C@@H](C)C(=O)NCC(=O)N[C@@H](CO)C(=O)N[C@H]1CSSC[C@@H](C(=O)N[C@@H](Cc2ccc(O)cc2)C(=O)N[C@@H](CCC(=O)O)C(=O)N[C@H](C(=O)N[C@@H](CCC(=O)O)C(=O)NCC(=O)N[C@H](C(=O)NCC(=O)NCC(=O)NCC(=O)N[C@@H](CCCCNC(=O)CN2CCN(CC(=O)O)CCN(CC(=O)O)CC2)C(N)=O)[C@@H](C)O)[C@@H](C)O)NC(=O)[C@H](Cc2c[nH]c3ccccc23)NC(=O)[C@@H]2CSSC[C@H](NC(=O)[C@H](Cc3ccc(O)cc3)NC1=O)C(=O)N[C@@H](CO)C(=O)NCC(=O)N1CCC[C@H]1C(=O)N1CCC[C@H]1C(=O)N[C@@H](CCCNC(=N)N)C(=O)N[C@@H](Cc1ccccc1)C(=O)N[C@@H](CCC(=O)O)C(=O)N2 [[^18F]AlF-EMP-105] (Ac-AGSCYCSGPPRFECWCYETEGTGGGK(NOTA)-NH2; disulfide 4-16, 6-14)
In vitro
  remaining at 1 h, 9.9 MBq/mL: 99%
  remaining at 2 h, 9.9 MBq/mL: 99%
  remaining at 3 h, 9.9 MBq/mL: 98%
  remaining at 4 h, 9.9 MBq/mL: 97%
[1]; heart, lung and liver
  Time at which activity peaked, heart, lung and liver: 1 min
[1]; kidneys
  Time at which activity peaked, kidneys: 2.5 min
HT29 [2]
  Change in radioactive uptake when blocked with 100-fold of EMI-137: significant decrease; also recorded: statistically significant decreases
HEPG2a [3]
  Change in radioactive uptake when blocked with 100-fold of EMI-137: not significant; also recorded: not observed
H1975 [4]
  Change in radioactive uptake when blocked with 100-fold of EMI-137: significant decrease; also recorded: statistically significant decreases
OE21 [5]
  Change in radioactive uptake when blocked with 100-fold of EMI-137: significant decrease; also recorded: statistically significant decreases
physchem; EDTA (0.02% in 0.5 mM DPBS)
  remaining at 1 h, 9.9 MBq/mL: 99%
  remaining at 2 h, 9.9 MBq/mL: 99%
  remaining at 3 h, 9.9 MBq/mL: 98%
  remaining at 4 h, 9.9 MBq/mL: 98%
physchem; PBS
  remaining at 1 h, 9.9 MBq/mL: 98%
  remaining at 2 h, 9.9 MBq/mL: 97%
  remaining at 3 h, 9.9 MBq/mL: 95%
  remaining at 4 h, 9.9 MBq/mL: 95%
physchem; RPMI media
  remaining at 1 h, 9.9 MBq/mL: 97%
  remaining at 2 h, 9.9 MBq/mL: 97%
  remaining at 3 h, 9.9 MBq/mL: 97%
  remaining at 4 h, 9.9 MBq/mL: 92%
[6]; kidney, 5 min p.i.
  Percentage of [^18F]AlF-EMP-105 Remaining: 9.8 ± 12.9%
[6]; kidney, 30 min p.i.
  Percentage of [^18F]AlF-EMP-105 Remaining: 4.3 ± 4.3%
[6]; liver, 5 min p.i.
  Percentage of [^18F]AlF-EMP-105 Remaining: 6.2 ± 10.8%
[6]; liver, 30 min p.i.
  Percentage of [^18F]AlF-EMP-105 Remaining: 0.4 ± 0.7%
[6]; plasma, 5 min p.i.
  Percentage of [^18F]AlF-EMP-105 Remaining: 98.3 ± 1.1%
[6]; plasma, 30 min p.i.
  Percentage of [^18F]AlF-EMP-105 Remaining: 93.3 ± 7.4%
[6]; urine, 30 min p.i.
  Percentage of [^18F]AlF-EMP-105 Remaining: 7.9 ± 9.2%

## AGSCYCSGPPRFECWCYETEGT-Cy5 (also: cyclic, ring closure not given here) [EMI-137]
HT29 [7]
  Fluorescent uptake of EMI-137: High uptakes
HEPG2a [8]
  Fluorescent uptake of EMI-137: low uptake
H1975 [9]
  Fluorescent uptake of EMI-137: High uptakes
OE21 [10]
  Fluorescent uptake of EMI-137: High uptakes
H1975 cells; 0, 5, 15 and 30 min at 37 °C after 30 min at 4 °C, glycine wash
  Internalisation of EMI-137: increased with time
H1975 cells; 50 nM, 30 min
  Difference in uptake at 37 °C versus 4 °C: the difference was not significant
